Assay results from the supplement of paper PMC10065799, “High-throughput profiling of sequence recognition by tyrosine kinases and SH2 domains using bacterial peptide display” (eLife, 2023).

Experiments:
[1] = molecular target: c-Src SH2; experiment: SH2 binding enrichment of the phosphorylated peptide, bacterial display (enrichment ratio); higher = better substrate or ligand; peptides without Tyr show the background
[2] = molecular target: SHP2-C SH2; experiment: as above
[3] = molecular target: Grb2 SH2 (UniProt P62993); experiment: as above
[4] = molecular target: Hck (UniProt P08631); experiment: phosphorylation enrichment, bacterial display (enrichment ratio); higher = better substrate or ligand; peptides without Tyr show the background
[5] = molecular target: MERTK (UniProt Q12866); experiment: as above
[6] = molecular target: Fyn (UniProt P06241); experiment: as above
[7] = molecular target: FGFR3 (UniProt P22607); experiment: as above
[8] = test system: AncSZ; experiment: as above
[9] = molecular target: EPHB1 (UniProt P54762); experiment: as above
[10] = molecular target: FGFR1 (UniProt P11362); experiment: as above
[11] = test system: Fer (mouse); experiment: as above
[12] = molecular target: Jak2 (UniProt O60674); experiment: as above
[13] = test system: c-Src; experiment: as above
[14] = molecular target: EPHB2 (UniProt P29323); experiment: as above
[15] = molecular target: Fes (UniProt P07332); experiment: as above
[16] = test system: c-Abl (mouse); experiment: as above
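Wherever SH2 binding enrichment of the phosphorylated peptide, bacterial display is given: peptide library displayed on the E. coli surface as eCPX fusions, selected cells deep-sequenced, score is each peptide's frequency after selection divided by its frequency in the input.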
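Wherever phosphorylation enrichment, bacterial display is given: 11-residue human phosphosite peptides and single-mutation variants displayed on the E. coli surface, counted by deep sequencing, each peptide's frequency after selection divided by its frequency in the unselected input library; frequency after pTyr selection over input frequency; kinase dosed for 20-30% of maximal phosphorylation in three min.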

Sequence of EPHB1 (P54762 whole entry, looked up): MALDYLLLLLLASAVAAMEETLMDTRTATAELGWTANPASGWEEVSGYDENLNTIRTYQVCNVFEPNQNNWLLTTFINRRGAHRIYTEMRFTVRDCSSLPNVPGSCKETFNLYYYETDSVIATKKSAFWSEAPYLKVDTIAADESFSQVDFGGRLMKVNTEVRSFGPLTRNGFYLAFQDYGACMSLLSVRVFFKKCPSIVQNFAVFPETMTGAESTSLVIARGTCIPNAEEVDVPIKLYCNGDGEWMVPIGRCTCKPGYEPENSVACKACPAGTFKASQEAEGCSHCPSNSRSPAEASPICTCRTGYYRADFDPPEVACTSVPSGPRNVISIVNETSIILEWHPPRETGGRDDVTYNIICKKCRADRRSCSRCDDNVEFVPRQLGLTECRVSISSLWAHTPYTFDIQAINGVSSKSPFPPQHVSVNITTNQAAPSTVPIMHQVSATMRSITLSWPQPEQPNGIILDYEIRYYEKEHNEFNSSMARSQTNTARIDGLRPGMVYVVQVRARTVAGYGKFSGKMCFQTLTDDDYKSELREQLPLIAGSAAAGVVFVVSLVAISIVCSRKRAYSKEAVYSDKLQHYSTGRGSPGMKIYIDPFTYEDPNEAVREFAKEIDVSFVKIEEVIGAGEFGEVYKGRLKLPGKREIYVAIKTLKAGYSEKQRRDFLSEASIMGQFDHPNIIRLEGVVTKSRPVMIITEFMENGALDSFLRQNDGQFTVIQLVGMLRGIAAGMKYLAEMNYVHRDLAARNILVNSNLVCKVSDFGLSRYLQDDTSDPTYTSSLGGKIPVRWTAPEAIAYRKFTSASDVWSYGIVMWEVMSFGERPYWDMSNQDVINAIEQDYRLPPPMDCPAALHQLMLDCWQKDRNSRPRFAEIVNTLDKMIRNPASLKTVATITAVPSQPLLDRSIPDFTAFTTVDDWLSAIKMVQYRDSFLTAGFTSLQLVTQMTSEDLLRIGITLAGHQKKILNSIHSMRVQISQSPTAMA
Sequence of EPHB2 (P29323 whole entry, looked up): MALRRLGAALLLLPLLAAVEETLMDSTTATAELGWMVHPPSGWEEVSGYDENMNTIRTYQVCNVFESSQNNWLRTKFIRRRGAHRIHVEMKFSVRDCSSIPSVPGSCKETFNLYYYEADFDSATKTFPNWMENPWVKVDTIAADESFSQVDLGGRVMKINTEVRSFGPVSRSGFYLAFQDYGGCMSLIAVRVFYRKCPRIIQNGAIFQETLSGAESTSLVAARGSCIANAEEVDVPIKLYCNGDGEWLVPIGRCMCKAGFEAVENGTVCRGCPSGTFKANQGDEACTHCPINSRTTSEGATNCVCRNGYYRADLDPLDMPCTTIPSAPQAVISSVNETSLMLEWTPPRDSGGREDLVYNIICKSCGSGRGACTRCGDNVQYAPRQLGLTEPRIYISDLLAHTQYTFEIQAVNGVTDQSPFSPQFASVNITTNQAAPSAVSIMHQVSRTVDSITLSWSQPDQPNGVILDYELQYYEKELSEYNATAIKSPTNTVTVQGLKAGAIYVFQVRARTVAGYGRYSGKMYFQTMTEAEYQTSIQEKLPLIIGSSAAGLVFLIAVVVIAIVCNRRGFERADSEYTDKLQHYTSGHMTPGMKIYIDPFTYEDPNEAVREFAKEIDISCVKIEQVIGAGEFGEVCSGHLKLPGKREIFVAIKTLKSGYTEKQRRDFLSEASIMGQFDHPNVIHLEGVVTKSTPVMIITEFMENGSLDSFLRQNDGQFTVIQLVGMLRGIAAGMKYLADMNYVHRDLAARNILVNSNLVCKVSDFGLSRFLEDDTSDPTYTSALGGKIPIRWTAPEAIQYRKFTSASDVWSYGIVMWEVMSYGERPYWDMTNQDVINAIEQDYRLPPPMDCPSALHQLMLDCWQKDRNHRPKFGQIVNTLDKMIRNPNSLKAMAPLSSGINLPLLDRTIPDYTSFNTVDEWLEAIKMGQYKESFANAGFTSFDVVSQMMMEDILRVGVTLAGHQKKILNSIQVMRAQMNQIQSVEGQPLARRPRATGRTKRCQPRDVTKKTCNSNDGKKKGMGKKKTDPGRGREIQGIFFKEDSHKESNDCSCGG
Sequence of Fes (P07332 whole entry, looked up): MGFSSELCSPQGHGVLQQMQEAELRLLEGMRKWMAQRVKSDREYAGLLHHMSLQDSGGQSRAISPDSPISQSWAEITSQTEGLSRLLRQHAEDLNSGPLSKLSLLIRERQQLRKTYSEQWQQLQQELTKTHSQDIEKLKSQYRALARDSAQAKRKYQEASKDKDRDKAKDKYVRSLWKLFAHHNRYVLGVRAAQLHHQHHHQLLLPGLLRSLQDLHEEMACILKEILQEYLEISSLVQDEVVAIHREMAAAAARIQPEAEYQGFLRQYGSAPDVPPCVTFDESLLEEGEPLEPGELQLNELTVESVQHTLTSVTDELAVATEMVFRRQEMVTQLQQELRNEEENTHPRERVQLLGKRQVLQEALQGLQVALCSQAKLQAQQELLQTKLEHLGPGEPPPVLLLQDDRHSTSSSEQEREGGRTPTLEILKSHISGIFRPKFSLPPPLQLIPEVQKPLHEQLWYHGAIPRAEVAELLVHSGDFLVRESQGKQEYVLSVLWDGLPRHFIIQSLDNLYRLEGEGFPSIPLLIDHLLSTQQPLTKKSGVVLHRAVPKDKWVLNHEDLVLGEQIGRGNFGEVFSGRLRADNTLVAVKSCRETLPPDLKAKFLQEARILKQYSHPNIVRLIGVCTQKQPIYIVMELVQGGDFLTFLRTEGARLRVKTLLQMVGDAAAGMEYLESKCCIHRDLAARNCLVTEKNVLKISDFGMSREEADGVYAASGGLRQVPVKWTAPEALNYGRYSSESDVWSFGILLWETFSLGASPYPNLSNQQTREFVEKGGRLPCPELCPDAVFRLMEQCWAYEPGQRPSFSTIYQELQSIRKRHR
Sequence of FGFR3 (P22607 whole entry, looked up): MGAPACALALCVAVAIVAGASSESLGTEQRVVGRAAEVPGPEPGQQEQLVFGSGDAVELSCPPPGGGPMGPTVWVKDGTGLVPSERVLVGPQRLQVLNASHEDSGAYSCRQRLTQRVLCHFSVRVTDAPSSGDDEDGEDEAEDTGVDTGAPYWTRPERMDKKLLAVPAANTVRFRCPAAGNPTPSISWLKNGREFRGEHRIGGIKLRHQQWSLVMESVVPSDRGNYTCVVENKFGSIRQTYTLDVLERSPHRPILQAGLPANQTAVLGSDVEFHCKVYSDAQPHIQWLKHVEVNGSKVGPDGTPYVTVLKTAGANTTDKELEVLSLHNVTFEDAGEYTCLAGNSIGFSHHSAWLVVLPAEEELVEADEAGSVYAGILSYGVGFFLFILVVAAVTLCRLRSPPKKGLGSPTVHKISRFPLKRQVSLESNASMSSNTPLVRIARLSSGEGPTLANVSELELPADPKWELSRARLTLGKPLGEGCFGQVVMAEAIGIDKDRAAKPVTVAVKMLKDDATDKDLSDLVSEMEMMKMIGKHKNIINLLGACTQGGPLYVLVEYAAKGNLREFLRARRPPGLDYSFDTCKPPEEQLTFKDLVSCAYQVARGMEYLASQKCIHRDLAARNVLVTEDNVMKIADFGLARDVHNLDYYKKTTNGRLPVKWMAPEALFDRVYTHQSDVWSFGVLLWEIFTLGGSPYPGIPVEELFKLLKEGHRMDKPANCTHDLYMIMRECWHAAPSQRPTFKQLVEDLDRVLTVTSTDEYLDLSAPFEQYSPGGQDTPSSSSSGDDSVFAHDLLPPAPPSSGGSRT
Sequence of Jak2 (O60674 whole entry, looked up): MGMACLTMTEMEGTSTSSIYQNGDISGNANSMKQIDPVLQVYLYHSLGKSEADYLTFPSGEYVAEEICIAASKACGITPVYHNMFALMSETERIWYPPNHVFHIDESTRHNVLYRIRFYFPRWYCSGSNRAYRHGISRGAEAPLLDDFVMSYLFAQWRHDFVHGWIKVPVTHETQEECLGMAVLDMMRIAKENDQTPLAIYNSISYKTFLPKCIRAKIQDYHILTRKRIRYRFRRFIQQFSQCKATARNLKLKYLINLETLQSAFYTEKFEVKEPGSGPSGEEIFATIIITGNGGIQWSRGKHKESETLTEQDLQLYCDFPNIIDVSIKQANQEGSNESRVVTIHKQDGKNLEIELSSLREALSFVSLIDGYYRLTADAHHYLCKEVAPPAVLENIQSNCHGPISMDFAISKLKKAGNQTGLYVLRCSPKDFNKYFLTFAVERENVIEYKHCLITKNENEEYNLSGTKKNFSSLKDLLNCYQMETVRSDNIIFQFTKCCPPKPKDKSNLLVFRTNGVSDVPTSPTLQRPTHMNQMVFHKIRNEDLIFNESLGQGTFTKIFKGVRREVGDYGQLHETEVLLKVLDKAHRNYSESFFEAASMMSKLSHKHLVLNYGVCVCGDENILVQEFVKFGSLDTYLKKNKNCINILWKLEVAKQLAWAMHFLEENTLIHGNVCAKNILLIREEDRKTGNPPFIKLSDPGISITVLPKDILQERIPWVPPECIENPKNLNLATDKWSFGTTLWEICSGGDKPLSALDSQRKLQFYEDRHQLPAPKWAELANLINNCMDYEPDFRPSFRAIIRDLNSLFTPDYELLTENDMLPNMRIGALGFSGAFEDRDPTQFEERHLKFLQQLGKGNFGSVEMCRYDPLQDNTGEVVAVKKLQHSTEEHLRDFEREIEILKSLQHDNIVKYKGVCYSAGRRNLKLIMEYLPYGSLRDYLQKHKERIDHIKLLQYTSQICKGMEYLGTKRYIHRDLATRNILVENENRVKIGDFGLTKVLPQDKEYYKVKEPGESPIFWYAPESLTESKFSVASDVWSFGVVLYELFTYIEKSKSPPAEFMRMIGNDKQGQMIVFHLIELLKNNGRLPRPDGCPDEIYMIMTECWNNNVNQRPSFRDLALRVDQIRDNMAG

Row | Sequence | SH2 binding enrichment [1] | SH2 binding enrichment [2] | SH2 binding enrichment [3] | phosphorylation enrichment [4] | phosphorylation enrichment [5] | phosphorylation enrichment [6] | phosphorylation enrichment [7] | phosphorylation enrichment [8] | phosphorylation enrichment [9] | phosphorylation enrichment [10] | phosphorylation enrichment [11] | phosphorylation enrichment [12] | phosphorylation enrichment [13] | phosphorylation enrichment [14] | phosphorylation enrichment [15] | phosphorylation enrichment [16]
1 | ENRKYYKDLKE [PURA_Y156_M157K] | 0.592 | 0.574 | 0.713 | 0.295 | 0.34 | 0.359 | 0.457 | 0.55 | 0.34 | 0.359 | 0.318 | 0.772 | 0.352 | 0.298 | 0.766 | 0.549
2 | EPGSLYGCGGG [ATM_Y2019_D2016G] | 0.589 | 0.695 | 1.24 | 2.19 | 0.634 | 0.851 | 0.567 | 0.77 | 0.548 | 0.52 | 0.818 | 0.707 | 0.918 | 0.527 | 0.803 | 0.584
3 | EPTPGYEVSQR [TSC2_Y1788_G1791S] | 0.56 | 0.629 | 0.858 | 0.441 | 0.427 | 0.437 | 0.641 | 0.83 | 0.434 | 0.46 | 0.447 | 0.706 | 0.383 | 0.549 | 0.888 | 0.615
4 | EPVSDYINADI [PTPN11_Y304_N308D] | 0.464 | 0.437 | 0.761 | 0.637 | 0.492 | 0.581 | 0.908 | 1.5 | 0.695 | 0.77 | 0.614 | 1.12 | 0.514 | 0.689 | 1.33 | 9
5 | EQLRAYLEGTC [HLA-C_Y183] | 0.561 | 0.707 | 0.844 | 0.55 | 0.403 | 0.453 | 0.692 | 1.02 | 0.467 | 0.843 | 0.558 | 0.866 | 0.423 | 0.591 | 1.08 | 0.53
6 | EREFKYGAHKF [OAT_Y50_N54K_YF] | 0.464 | 0.585 | 0.846 | 0.427 | 0.392 | 0.443 | 0.438 | 0.599 | 0.339 | 0.424 | 0.329 | 0.571 | 0.423 | 0.412 | 0.738 | 0.496
7 | ETEMLYGSAPR [PRC1_Y464] | 0.437 | 0.686 | 0.784 | 6.51 | 0.414 | 6.44 | 0.557 | 0.889 | 0.433 | 0.474 | 6.32 | 0.556 | 5.25 | 0.513 | 0.805 | 0.716
8 | EVVGRYSGHNA [MLH1_Y183_V185G] | 0.448 | 0.629 | 0.768 | 0.403 | 0.426 | 0.414 | 0.48 | 0.464 | 0.434 | 0.405 | 0.397 | 0.397 | 0.34 | 0.4 | 0.514 | 0.368
9 | EWKNNYPRLRE [OPA1_Y582] | 0.453 | 0.55 | 0.738 | 0.441 | 0.404 | 0.422 | 0.483 | 0.563 | 0.337 | 0.383 | 0.4 | 0.564 | 0.371 | 0.442 | 0.607 | 0.797
10 | FAGRDYSLDEF [MYOF_Y1705_G1701A_YF] | 0.69 | 0.712 | 0.699 | 0.51 | 0.45 | 0.454 | 0.708 | 0.986 | 0.433 | 0.497 | 0.451 | 1.01 | 0.572 | 0.567 | 0.969 | 0.639
11 | FASTGYGIAIQ [GRIN2B_Y762] | 0.452 | 0.647 | 0.721 | 0.484 | 0.408 | 0.499 | 0.55 | 0.655 | 0.575 | 0.557 | 0.375 | 0.605 | 0.408 | 0.456 | 0.92 | 0.739
12 | FCVDCYKNFVA [FHL1_Y213_YF] | 0.946 | 1.02 | 1.2 | 0.529 | 0.487 | 0.562 | 0.617 | 0.862 | 0.533 | 0.57 | 0.523 | 0.898 | 0.461 | 0.751 | 0.957 | 0.776
13 | FCVVRYCWLRR [MPZ_Y181_Y177C] | 0.539 | 0.515 | 0.581 | 0.577 | 0.656 | 0.606 | 0.709 | 0.718 | 0.45 | 0.552 | 0.404 | 0.586 | 0.738 | 0.603 | 0.76 | 0.773
14 | FDAHIYEGCVI [PRKCD_Y64_R67C] | 0.5 | 0.758 | 0.713 | 2.53 | 0.635 | 2.48 | 0.831 | 1.39 | 0.656 | 0.563 | 10.5 | 1.05 | 3.34 | 0.639 | 1.44 | 0.938
15 | FDGGCYEQLFV [MC4R_Y41_S36Y_YF] | 0.485 | 0.654 | 0.709 | 2.67 | 0.875 | 1.81 | 1.33 | 2.53 | 1.09 | 1.05 | 10.7 | 1.43 | 2.46 | 1.07 | 1.49 | 0.748
16 | FDGKDYIALKE [HLA-A_Y147_N151K_YF] | 0.499 | 0.677 | 0.919 | 0.363 | 0.406 | 0.376 | 0.44 | 0.952 | 0.407 | 0.398 | 0.379 | 0.659 | 0.489 | 0.43 | 0.672 | 0.536
17 | FDNPVCQKTTE [LDLR_Y828_Y828C] | 0.563 | 0.812 | 0.969 | 0.603 | 0.477 | 0.573 | 0.774 | 1.1 | 0.485 | 0.57 | 0.528 | 0.875 | 0.523 | 0.653 | 1.18 | 0.877
18 | FEREQYADRAR [RBM4_Y355_YF] | 0.536 | 0.567 | 0.956 | 0.426 | 0.331 | 0.484 | 0.587 | 0.626 | 0.414 | 0.426 | 0.394 | 0.515 | 0.396 | 0.446 | 0.727 | 0.464
19 | FFCRWYRNQKS [EREG_Y144_R147Q_YF] | 0.496 | 0.657 | 0.603 | 0.596 | 0.497 | 0.482 | 0.478 | 0.775 | 0.493 | 0.347 | 0.513 | 0.488 | 0.57 | 0.489 | 0.6 | 0.855

More lines, main results first:

Row | SH2 binding enrichment [1] | SH2 binding enrichment [2] | SH2 binding enrichment [3] | Sequence | phosphorylation enrichment [4] | phosphorylation enrichment [5] | phosphorylation enrichment [6] | phosphorylation enrichment [7] | phosphorylation enrichment [8] | phosphorylation enrichment [9] | phosphorylation enrichment [10] | phosphorylation enrichment [11] | phosphorylation enrichment [12] | phosphorylation enrichment [13] | phosphorylation enrichment [14] | phosphorylation enrichment [15] | phosphorylation enrichment [16]
20 | 0.859 | 0.955 | 1.06 | EQKKFYNAMKK [SCN5A_Y1495_YF] | 0.367 | 0.379 | 0.325 | 0.339 | 0.484 | 0.299 | 0.394 | 0.34 | 0.569 | 0.373 | 0.317 | 0.576 | 0.52
21 | 0.648 | 0.646 | 0.966 | EQKKFYNAVKK [SCN5A_Y1495_M1498V_YF] | 0.429 | 0.482 | 0.392 | 0.35 | 0.499 | 0.417 | 0.35 | 0.402 | 1.06 | 0.461 | 0.407 | 0.57 | 0.531
22 | 1.2 | 0.789 | 1.07 | ERDFTYDELLN [EIF2S2_Y176_E177D_YF] | 0.994 | 0.537 | 0.667 | 0.815 | 1.53 | 0.616 | 0.58 | 0.638 | 1.46 | 0.796 | 0.598 | 1.33 | 0.894
23 | 1.15 | 0.734 | 0.829 | ESDYTYSSSYE [SRPK2_Y427] | 0.86 | 0.486 | 1.11 | 1.06 | 2.42 | 1.3 | 1.12 | 0.68 | 0.852 | 1.43 | 1.45 | 1.15 | 0.725
24 | 0.276 | 0.533 | 0.705 | ETGNLYIAKVE [CNTN4_Y180] | 0.479 | 0.336 | 0.448 | 0.62 | 0.896 | 0.522 | 0.405 | 0.441 | 0.757 | 0.391 | 0.52 | 0.89 | 0.635
25 | 0.693 | 0.8 | 1.42 | FADPFYDFEIE [ZC3H18_Y372_YF] | 0.674 | 0.555 | 3.26 | 0.708 | 1.36 | 0.785 | 0.57 | 0.752 | 1.12 | 3.4 | 0.687 | 1.19 | 0.817
26 | 0.444 | 0.527 | 0.812 | FDEFRYRSVIK [CFTR_Y517_YF] | 0.498 | 0.463 | 0.41 | 0.484 | 0.768 | 0.39 | 0.466 | 0.409 | 0.607 | 0.46 | 0.472 | 0.804 | 0.544
27 | 0.419 | 0.548 | 0.878 | FEEDSYVTRSQ [RET_Y905_K907T_YF] | 0.531 | 0.47 | 0.5 | 1.08 | 1.18 | 0.651 | 0.452 | 0.529 | 1.27 | 0.617 | 0.829 | 1.33 | 0.912
28 | 0.564 | 0.62 | 0.797 | FETDFYQKGGK [INSR_Y1190_R1191Q_YF] | 0.472 | 0.421 | 0.519 | 0.503 | 0.633 | 0.834 | 0.411 | 0.47 | 0.526 | 0.427 | 0.355 | 0.88 | 0.523
29 | 0.501 | 0.759 | 0.68 | FFDANYDGKEF [MAPRE2_Y162_YF] | 0.601 | 0.424 | 0.529 | 0.695 | 1.11 | 0.558 | 0.824 | 0.446 | 0.957 | 0.443 | 0.666 | 1.42 | 0.611
